{
  "source": "patent US20060142195",
  "molecular_target": "T1, fibrin, P02671",
  "T1 chain 1": "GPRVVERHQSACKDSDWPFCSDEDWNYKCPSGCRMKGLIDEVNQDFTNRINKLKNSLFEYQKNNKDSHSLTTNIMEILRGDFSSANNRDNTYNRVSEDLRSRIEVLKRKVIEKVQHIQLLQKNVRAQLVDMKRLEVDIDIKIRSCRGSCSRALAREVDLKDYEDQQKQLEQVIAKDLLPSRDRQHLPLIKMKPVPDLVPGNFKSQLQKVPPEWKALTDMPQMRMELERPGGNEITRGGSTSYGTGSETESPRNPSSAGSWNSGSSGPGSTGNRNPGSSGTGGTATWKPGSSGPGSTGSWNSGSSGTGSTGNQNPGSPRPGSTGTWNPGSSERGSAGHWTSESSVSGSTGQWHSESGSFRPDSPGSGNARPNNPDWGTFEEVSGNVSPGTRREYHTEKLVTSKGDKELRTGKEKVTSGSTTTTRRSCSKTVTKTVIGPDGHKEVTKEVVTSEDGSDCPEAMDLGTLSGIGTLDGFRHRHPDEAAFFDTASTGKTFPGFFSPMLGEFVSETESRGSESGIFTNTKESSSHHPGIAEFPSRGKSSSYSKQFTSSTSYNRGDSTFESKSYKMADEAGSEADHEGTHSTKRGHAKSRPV",
  "T1 chain 2": "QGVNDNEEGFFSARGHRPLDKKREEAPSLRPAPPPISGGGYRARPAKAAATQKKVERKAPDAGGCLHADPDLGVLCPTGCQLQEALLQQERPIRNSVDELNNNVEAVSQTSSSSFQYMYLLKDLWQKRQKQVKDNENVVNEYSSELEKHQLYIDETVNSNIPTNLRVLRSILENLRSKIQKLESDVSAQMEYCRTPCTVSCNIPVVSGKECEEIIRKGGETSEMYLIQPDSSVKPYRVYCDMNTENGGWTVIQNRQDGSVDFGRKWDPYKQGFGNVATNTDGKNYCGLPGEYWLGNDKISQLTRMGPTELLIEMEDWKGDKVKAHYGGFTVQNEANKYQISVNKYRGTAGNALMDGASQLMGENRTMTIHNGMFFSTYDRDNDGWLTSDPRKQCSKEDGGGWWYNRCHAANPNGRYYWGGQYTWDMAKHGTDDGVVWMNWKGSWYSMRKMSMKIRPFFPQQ",
  "T1 chain 3": "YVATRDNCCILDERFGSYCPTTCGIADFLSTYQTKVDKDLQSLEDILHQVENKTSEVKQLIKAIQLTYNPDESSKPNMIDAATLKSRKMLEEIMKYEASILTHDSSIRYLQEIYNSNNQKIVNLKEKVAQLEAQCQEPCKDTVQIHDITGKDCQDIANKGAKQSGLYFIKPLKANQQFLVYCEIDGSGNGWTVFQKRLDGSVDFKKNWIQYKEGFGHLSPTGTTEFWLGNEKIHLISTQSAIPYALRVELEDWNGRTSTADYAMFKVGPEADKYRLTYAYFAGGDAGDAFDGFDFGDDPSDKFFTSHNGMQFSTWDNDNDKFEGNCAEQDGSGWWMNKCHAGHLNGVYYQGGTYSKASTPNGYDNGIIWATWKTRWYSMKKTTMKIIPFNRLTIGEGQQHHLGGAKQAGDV",
  "data": [
    {"protein": "modified tissue plasminogen activator with an amino acid sequence according to SEQ ID No. 1 (protein) AYGVACKDEITQMTYRRQESWLRPEVRSKRVEHCQCDRGQARCHTVPVKSCSEPRCFNGGTCQQALYFSDFVCQCPEGFAGKCCEIDTRATCYEDQGISYRGTWSTAESGAECTNWNSSALAQKPYSGRRPDAIRLGLGNHNYCRNPDRDSKPWCYVFKAGKYSSEFCSTPACSSTCGLRQYSQPQFHSTGGLFADIASHPWQAAIFAKHRRSPGERFLCGGILISSCWILSAAHCFQERFPPHHLTVILGRTYRVVPGEEEQKFEVEKYIVHKEFDDDTYDNDIALLQLKSDSSRCAQESSVVRTVCLPPADLQLPDWTECELSGYGKHEALSPFYSERLKEAHVRLYPSSRCTSQHLLNRTVTDNMLCAGDTRSGGPQANLHDACQGDSGGPLVCLNDGRMTLVGIISWGLGCGQKDVPGVYTKVTNYLDWIRDNMRP", "values": [
      {"measurement": "fibrin specificity (semi quantitative tests)", "value": "showed a increased fibrin specificity in comparison to the wild type t-PA"}
    ]}
  ]
}
